Measurements taken from patent US20260176653A1 (TRUSTEES OF BOSTON UNIVERSITY, published 2026).
Ends that are not written are not given here.

T1: HCV protease NS3 from genotype 1B (NS4A/NS3, fused to the C-terminus of ADAR2-DD) (Hepatitis C virus genotype 1B, UniProt Q9WMX2 1029-1206)
T1 chain: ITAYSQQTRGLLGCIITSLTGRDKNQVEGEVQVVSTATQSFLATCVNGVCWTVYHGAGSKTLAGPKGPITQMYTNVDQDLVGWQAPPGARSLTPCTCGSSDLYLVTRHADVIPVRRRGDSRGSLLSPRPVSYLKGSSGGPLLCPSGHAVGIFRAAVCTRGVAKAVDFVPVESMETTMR


Assays:
Assay in all cases: cell-based or functional assay
[1] = biological target: EGFP(R96M)-AlfaTag fusion protein (non-fluorescent EGFP carrying the ALFA tag)
[2] = biological target: Bcl-xL (human, fused to the C-terminus of ADAR2-DD) (human, UniProt Q07817 4-198)
[3] = biological target: T1, HCV protease NS3 from genotype 1B …

Row | Binder | median relative fluorescence, flow cytometry: A-1331852 plus EGFP(R96M)-AlfaTag against A-1331852 alone (the effect of adding the antigen) [1] | Fold Change (1 µM over 0 µM A-1331852) [2] | median ratio of mNeonGreen to mCherry, flow cytometry, 0 µM A-1331852 (background) [2] | median ratio of mNeonGreen to mCherry, flow cytometry, 1 µM A-1331852 [2] | ratio of mNeonGreen to mCherry, 2 µM grazoprevir against no drug, HEK cells, imaging (fusion SEQ ID NO 169) [3]
1 | ALFA-Bcl dual input iADAR (BAD peptide at the N-terminus of ADAR2-DD(F697Y), ALFA-PE at the 5' RNA binding site, AlfaNb and Bcl-xL in tandem at the C-terminus) (other) MASNFTQFVLVDNGGTGDVTVAPSNFANGIAEWISSNSRSQAYKVTCSVRQSSAQNRKYTIKVEVPKGAWRSYLNMELTIPIFATNSDCELIVKAMQGLLKDGNPIPSAIAANSGIYGGSGSGAGSGSPAGGGAPGSGGGSTGAPPNLWAAQRYGRELRRMSDEFVDSFKKASQLHLPQVLADAVSRLVLGKFGDLTDNFSSPHARRKVLAGVVMTTGTDVKDAKVISVSTGTKCINGEYMSDRGLALNDCHAEIISRRSLLRFLYTQLELYLNNKDDQKRSIFQKSERGGFRLKENVQFHLYISTSPCGDARIFSPHEPILEEPAASGSGPGRLEEELRRRLSPGTGDRHPNRKARGQLRTKIESGQGTIPVRSNASIQTWDGVLQGERLLTMSCSDKIARWNVVGIQGSLLSIFVEPIYFSSIILGSLYHGDHLSRAMYQRISNIEDLPPLYTLNKPLLSGISNAEARQPGKAPNFSVNWTVGDSAIEVINATTGKDELGRASRLCKHALYCRWMRVHGKVPSHLLRSKITKPNVYHESKLAAKEYQAAKARLFTAFIKAGLGAWVEKPTEQDQYSLTGSGGTAEVQLQESGGGLVQPGGSLRLSCTASGVTISALNAMAMGWYRQAPGERRVMVAAVSERGNAMYRESVQGRFTVTRDFTNKMVSLQMDNLKPEDTAVYYCHVLEDRVDSFHDYWGQGTQVTVSSGAGSGASSNRELVVDFLSYKLSQKGYSWSQFSDVEENRTEAPEGTESEMETPSAINGNPSWHLADSPAVNGATGHSSSLDAREVIPMAAVKQALREAGDEFELRYRRAFSDLTSQLHITPGTAYQSFEQVVNELFRDGVNWGRIVAFFSFGGALCVESVDKEMQVLVSRIAAWMATYLNDHLEPWIQENGGWDTFVELYGNNGSSELIKENMHMKLYMEGTVDNHHFKCTSEGEGKPYEGTQTMRIKVVEGGPLPFAFDILATSFLYGSKTFINHTQGIPDFFKQSFPEGFTWERVTTYEDGGVLTATQDTSLQDGCLIYNVKIRGVNFTSNGPVMQKKTLGWEAFTETLYPADGGLEGRNDMALKLVGGSHLIANIKTTYRSKKPAKNLKMPGVYYVDYRLERIKEANNETYVEQHEVAVARYCDLPSKLGHKLN | ~10 fold | – | – | – | –
2 | ASGSGTGAPPNLWAAQRYGRELRRMSDEGV (not fully specified) | – | 9.65 fold | 0.1 | 0.968 | –
3 | ASGSGTGAPPNLWAAQRYGRELRRMSDEVV (not fully specified) [BAD(V) peptide (Bad point mutant F121V, inserted at the 5' RNA binding loop of ADAR2-DD)] | – | 14.4 fold | 0.0708 | 1.02 | –
4 | ASGSGTGAPPNLWAAQRYGRELRRMSDELV (not fully specified (N-terminus, C-terminus); also: part of an expressed fusion protein) [Bad(L) peptide (Bad point mutant F121L, inserted at the 5' RNA binding loop of ADAR2-DD)] | – | 23.2 fold | 0.0389 | 0.903 | –
5 | GELDELVYLLDGPGYDPIHCDVVTRGGSHLFNF [CP5-46-4D5E peptide (NS3 binding peptide, inserted at the 5' RNA binding loop of ADAR2-DD)] | – | – | – | – | ~18 fold
6 | ASGSGTGAPPNLWAAQRYGRELRRMSDEFV (not fully specified (N-terminus, C-terminus); also: part of an expressed fusion protein) [Bad(F) peptide (BH3 peptide Bad with its linker, as inserted at the 5' RNA binding loop of ADAR2-DD)] | – | 37 fold | 0.026 | 0.962 | –
